Experimental data taken from US20230357348A1 (AstraZeneca / MedImmune, published 2023).
Starred links: 1 amine or outer side, 2 acyl side, 3 side chain; linkers in the order of their positions; H or OH if unused. Non-standard residues stand in square brackets, D forms with d. Groups on a side chain read outwards from the residue. Primed or numbered codes have the meaning given here. No end group written: not given here. *: point of attachment. C20 diacid = O=C(O)CCCCCCCCCCCCCCCCCCC(=O)*; C18 diacid = O=C(O)CCCCCCCCCCCCCCCCC(=O)*; γGlu = O=C(O)[C@H](CCC(=O)[*:2])N[*:1]; αMeF = C[C@](N)(Cc1ccccc1)C(=O)O; PEG4 = NCCOCCOCCOCCOCCC(=O)O; PEG4′ = polyethylene glycol; AEEA = NCCOCCOCC(=O)O; Aib = CC(C)(N)C(=O)O

B1: Peptide 268 (peptide)
peptide: H[Aib]HGS[αMeF]TSDVSK[αMeF]LDSRAAK([AEEA-γGlu-C20 diacid])D[αMeF]VQ[Aib]IANT-NH2
modifications: N-terminus assumed
SMILES: CC[C@H](C)[C@H](NC(=O)C(C)(C)NC(=O)[C@H](CCC(N)=O)NC(=O)[C@@H](NC(=O)[C@](C)(Cc1ccccc1)NC(=O)[C@H](CC(=O)O)NC(=O)[C@H](CCCCNC(=O)COCCOCCNC(=O)CC[C@H](NC(=O)CCCCCCCCCCCCCCCCCCC(=O)O)C(=O)O)NC(=O)[C@H](C)NC(=O)[C@H](C)NC(=O)[C@H](CCCNC(=N)N)NC(=O)[C@H](CO)NC(=O)[C@H](CC(=O)O)NC(=O)[C@H](CC(C)C)NC(=O)[C@](C)(Cc1ccccc1)NC(=O)[C@H](CCCCN)NC(=O)[C@H](CO)NC(=O)[C@@H](NC(=O)[C@H](CC(=O)O)NC(=O)[C@H](CO)NC(=O)[C@@H](NC(=O)[C@](C)(Cc1ccccc1)NC(=O)[C@H](CO)NC(=O)CNC(=O)[C@H](Cc1c[nH]cn1)NC(=O)C(C)(C)NC(=O)[C@@H](N)Cc1c[nH]cn1)[C@@H](C)O)C(C)C)C(C)C)C(=O)N[C@@H](C)C(=O)N[C@@H](CC(N)=O)C(=O)N[C@H](C(N)=O)[C@@H](C)O
B2: Peptide 296 (peptide)
peptide: H[Aib]HGS[αMeF]TSDVSK[Aib]LDSRAAK([AEEA-AEEA-γGlu-C18 diacid])D[αMeF]VQ[Aib]IANT-NH2
modifications: N-terminus assumed
SMILES: CC[C@H](C)[C@H](NC(=O)C(C)(C)NC(=O)[C@H](CCC(N)=O)NC(=O)[C@@H](NC(=O)[C@](C)(Cc1ccccc1)NC(=O)[C@H](CC(=O)O)NC(=O)[C@H](CCCCNC(=O)COCCOCCNC(=O)COCCOCCNC(=O)CC[C@H](NC(=O)CCCCCCCCCCCCCCCCC(=O)O)C(=O)O)NC(=O)[C@H](C)NC(=O)[C@H](C)NC(=O)[C@H](CCCNC(=N)N)NC(=O)[C@H](CO)NC(=O)[C@H](CC(=O)O)NC(=O)[C@H](CC(C)C)NC(=O)C(C)(C)NC(=O)[C@H](CCCCN)NC(=O)[C@H](CO)NC(=O)[C@@H](NC(=O)[C@H](CC(=O)O)NC(=O)[C@H](CO)NC(=O)[C@@H](NC(=O)[C@](C)(Cc1ccccc1)NC(=O)[C@H](CO)NC(=O)CNC(=O)[C@H](Cc1c[nH]cn1)NC(=O)C(C)(C)NC(=O)[C@@H](N)Cc1c[nH]cn1)[C@@H](C)O)C(C)C)C(C)C)C(=O)N[C@@H](C)C(=O)N[C@@H](CC(N)=O)C(=O)N[C@H](C(N)=O)[C@@H](C)O
B3: Peptide 271 (peptide)
peptide: H[Aib]HGS[αMeF]TSDVSK[αMeF]LDSRAAK([γGlu-C18 diacid])D[αMeF]VQ[Aib]IANT-NH2
modifications: N-terminus assumed
SMILES: CC[C@H](C)[C@H](NC(=O)C(C)(C)NC(=O)[C@H](CCC(N)=O)NC(=O)[C@@H](NC(=O)[C@](C)(Cc1ccccc1)NC(=O)[C@H](CC(=O)O)NC(=O)[C@H](CCCCNC(=O)CC[C@H](NC(=O)CCCCCCCCCCCCCCCCC(=O)O)C(=O)O)NC(=O)[C@H](C)NC(=O)[C@H](C)NC(=O)[C@H](CCCNC(=N)N)NC(=O)[C@H](CO)NC(=O)[C@H](CC(=O)O)NC(=O)[C@H](CC(C)C)NC(=O)[C@](C)(Cc1ccccc1)NC(=O)[C@H](CCCCN)NC(=O)[C@H](CO)NC(=O)[C@@H](NC(=O)[C@H](CC(=O)O)NC(=O)[C@H](CO)NC(=O)[C@@H](NC(=O)[C@](C)(Cc1ccccc1)NC(=O)[C@H](CO)NC(=O)CNC(=O)[C@H](Cc1c[nH]cn1)NC(=O)C(C)(C)NC(=O)[C@@H](N)Cc1c[nH]cn1)[C@@H](C)O)C(C)C)C(C)C)C(=O)N[C@@H](C)C(=O)N[C@@H](CC(N)=O)C(=O)N[C@H](C(N)=O)[C@@H](C)O

Tests used:
human glucagon receptor = human glucagon receptor (human, UniProt P47871 26-477); assay: cell-based or functional assay
Sequence of human glucagon receptor (P47871 26-477): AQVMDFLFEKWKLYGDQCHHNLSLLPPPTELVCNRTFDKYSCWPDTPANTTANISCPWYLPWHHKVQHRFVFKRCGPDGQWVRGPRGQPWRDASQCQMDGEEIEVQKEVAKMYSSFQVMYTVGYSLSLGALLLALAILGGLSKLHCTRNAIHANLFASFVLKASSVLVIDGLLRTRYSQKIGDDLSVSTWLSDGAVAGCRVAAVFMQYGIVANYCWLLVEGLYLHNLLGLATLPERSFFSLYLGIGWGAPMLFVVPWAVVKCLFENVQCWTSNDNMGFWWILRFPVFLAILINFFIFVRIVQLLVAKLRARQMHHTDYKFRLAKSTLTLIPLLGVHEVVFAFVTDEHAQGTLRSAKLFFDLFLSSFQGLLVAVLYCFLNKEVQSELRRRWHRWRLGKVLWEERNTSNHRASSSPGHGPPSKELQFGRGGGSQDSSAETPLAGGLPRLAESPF

human GLP-1 receptor = human GLP-1 receptor (human, UniProt P43220 24-463); assay: cell-based or functional assay

| Binder | hGluc-R EC50 (pM), cAMP (human glucagon receptor) | hGLP-1R EC50 (pM), cAMP (human GLP-1 receptor) |
| --- | --- | --- |
| H[Aib]HGS[αMeF]TSDVSK[αMeF]LDSRAAK([AEEA-C20 diacid])D[αMeF]VQ[Aib]IANT-NH2 [Peptide 278] | 83.5 pM | 78.9 pM |
| H[Aib]HGS[αMeF]TSDVSK[αMeF]LDSRAAK([AEEA-AEEA-C18 diacid])D[αMeF]VQ[Aib]IANT-NH2 [Peptide 272] | 14.3 pM | 15.7 pM |
| H[Aib]HGS[αMeF]TSDVSK[αMeF]LDSRAAK([AEEA-γGlu-γGlu-C18 diacid])D[αMeF]VQ[Aib]IANT-NH2 [Peptide 274] | 31.3 pM | 27.1 pM |
| H[Aib]HGS[αMeF]TSDVSK[αMeF]LDSRAAK([AEEA-γGlu-γGlu-C20 diacid])D[αMeF]VQ[Aib]IANT-NH2 [Peptide 279] | 150 pM | 86.5 pM |
| H[Aib]HGS[αMeF]TSDVSK[αMeF]LDSRAAK([AEEA-AEEA-γGlu-C18 diacid])DFVQ[Aib]IANT-NH2 (not fully specified; also: Y13: αMePhe per table) [Peptide 287] | 26.5 pM | 27.5 pM |
| B1 | 29.3 pM | 39.5 pM |
| H[Aib]HGS[αMeF]TSDVSK[αMeF]LDSRAAK([AEEA-AEEA-γGlu-γGlu-C20 diacid])D[αMeF]VQ[Aib]IANT-NH2 (also: S2: Aib per table, X6: αMePhe, F per table) [Peptide 282] | 1140 pM | 1230 pM |
| H[Aib]HGS[αMeF]TSDVSKYLDSRAAK([AEEA-AEEA-γGlu-γGlu-C20 diacid])D[αMeF]VQ[Aib]IANT-NH2 (also: F6: αMePhe per table, X13: αMePhe, Y per table) [Peptide 283] | 552 pM | 129 pM |
| H[Aib]HGS[αMeF]TSDVSKYLDSRAAKDFVQWIANT-NH2 (not fully specified (residue 20); also: F6: αMePhe per table) [Peptide 292] | 20.4 pM | 28.7 pM |
| H[Aib]HGS[αMeF]TSDVSK[αMeF]LDSRAAK([γGlu-γGlu-C18 diacid])D[αMeF]VQ[Aib]IANT-NH2 [Peptide 270] | 31.3 pM | 24.4 pM |
| H[Aib]HGS[αMeF]TSDVSK[αMeF]LDSRAAK([AEEA-AEEA-γGlu-C18 diacid])D[αMeF]VQWIANT-NH2 (not fully specified; also: F22: αMePhe per table) [Peptide 288] | 26.9 pM | 42.7 pM |
| H[Aib]HGS[αMeF]TSDVSK[αMeF]LDSRAAK([AEEA-AEEA-γGlu-C20 diacid])D[αMeF]VQ[Aib]IANT-NH2 [Peptide 280] | 155 pM | 78.3 pM |
| H[Aib]HGS[αMeF]TSDVSK[αMeF]LDSRAAK([PEG4-γGlu-C20 diacid])D[αMeF]VQ[Aib]IANT-NH2 [Peptide 267] | 128 pM | 65.6 pM |
| H[Aib]HGS[αMeF]TSDVSK[αMeF]LDSRAAK([γGlu-C20 diacid])D[αMeF]VQ[Aib]IANT-NH2 [Peptide 276] | 91.4 pM | 143 pM |
| H[Aib]HGS[αMeF]TSDVSK[αMeF]LDSRAAK([γGlu-γGlu-C20 diacid])D[αMeF]VQ[Aib]IANT-NH2 [Peptide 275] | 175 pM | 111 pM |
| H[Aib]HGS[αMeF]TSDVSK[αMeF]LDSRAAK([AEEA-AEEA-C20 diacid])D[αMeF]VQ[Aib]IANT-NH2 [Peptide 277] | 57.3 pM | 49.5 pM |
| HSHGS[αMeF]TSDVSK[αMeF]LDSRAAK([AEEA-AEEA-γGlu-C18 diacid])D[αMeF]VQ[Aib]IANT-NH2 (not fully specified; also: S2: Aib per table) [Peptide 285] | 87 pM | 301 pM |
| B2 | 3250 pM | 64.1 pM |
| H[Aib]HGS[αMeF]TSDVSKYLDSRAAK([AEEA-AEEA-γGlu-C18 diacid])D[αMeF]VQ[Aib]IANT-NH2 (also: F6: αMePhe per table, X13: αMePhe, Y per table) [Peptide 286] | 53 pM | 31.6 pM |
| H[Aib]HGS[αMeF]TSDVSK[αMeF]LDSRAAK([PEG4′-γGlu-γGlu-C20 diacid])D[αMeF]VQ[Aib]IANT-NH2 [Peptide 269] | 271 pM | 52 pM |
| H[Aib]HGS[αMeF]TSDVSK[αMeF]LDSRAAK([AEEA-C18 diacid])D[αMeF]VQ[Aib]IANT-NH2 [Peptide 273] | 23.3 pM | 22.1 pM |
| B3 | 28 pM | 54.6 pM |
